Measured values: paper PMC4169556, “Isolation of Dihydroflavonol 4-Reductase cDNA Clones from Angelonia x angustifolia and Heterologous Expression as GST Fusion Protein in Escherichia coli” (PLoS ONE, 2014)

Columns and labels:
[1] = substrate: O=C1c2c(O)cc(O)cc2O[C@H](c2ccc(O)c(O)c2)[C@H]1O; experiment: cells, lysate or membranes; type: biochemical, Angelonia angustifolia; conditions: NADPH, pH 6.5, 25 °C (standard assay), yeast protein fraction, labelled compound
[2] = substrate: O=C1c2c(O)cc(O)cc2O[C@H](c2cc(O)c(O)c(O)c2)[C@H]1O; experiment: cells, lysate or membranes; type: biochemical, Angelonia angustifolia; conditions: NADPH, pH 6.5, 25 °C (standard assay), yeast protein fraction, labelled compound

B1: Ang.DFR2 (Angelonia angustifolia) (protein)
chain: METTATQPPPPSSAAAVPATVCVTGAAGFIGSWLVMKLLQRGYNVRATVRDPGNLKKIKHLTQLPKADTNLTLWKADLMEEASFDEAIEGCQGVFHLATPMEFDSKDPENEVIKPTIEGMMSIIRSCAKAKTVEKVIFTTSAGTLNVEEHQKPFYDETSWSDLDFIYSKKMTGWMYFVSKYLAEKQAVEAAKLNNIEFISIIPPVVVGPFINPAFPPSLVTALSPITGNEAHYTIMKQGQFVHLDDICEAHIFLFEHPKADGRYICSSHDATIYDIARLIRDKWPEYNVPMEFKGIDKDIPVVRFSSKKLTSMGFKFKYSLEDMYRGAIETCREKGLLPYSTHNQSNGEKKESTLQSLEKHSDDQEKVLEKRVNGRLDKQFEEQKKELLPIREEKHTNGSLEKCSDDQAKVLLPLPEEKQTNGSLEKHVMINIKTCE
notes: full-length ORF, 437 residues; pYES2.1/V5-His-TOPO in S. cerevisiae INVSc1, protein fraction, not purified
Km [1]: 11 µM | Km [2]: 6.5 µM
